Consider four molecules from PMC10397247.

For one test, the target named is T1, 4H1373-bA.
T1 chain: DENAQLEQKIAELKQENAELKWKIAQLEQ
Put plainly: two-hybrid library CCNG1.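 Also: natural log of median RNA to DNA barcode read ratio; higher means stronger binding.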

The target in another test is T2, 4H3974-bA.
T2 chain: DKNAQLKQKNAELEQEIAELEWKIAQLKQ
In words: two-hybrid library CCNG1.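 Also: natural log of median RNA to DNA barcode read ratio; higher means stronger binding.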

The next test addresses T3, 4H3817-bA.
T3 chain: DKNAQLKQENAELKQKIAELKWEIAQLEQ
Put plainly: two-hybrid library CCNG1.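 Also: natural log of median RNA to DNA barcode read ratio; higher means stronger binding.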

The next test concerns the target T4, 4H3858-bA.
T4 chain: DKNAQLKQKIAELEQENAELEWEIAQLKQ
In words: two-hybrid library CCNG1.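 Also: natural log of median RNA to DNA barcode read ratio; higher means stronger binding.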

In another test the target is T5, 4H1899-bA.
T5 chain: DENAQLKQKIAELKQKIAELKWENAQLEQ
In words: two-hybrid library CCNG1.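 Also: natural log of median RNA to DNA barcode read ratio; higher means stronger binding.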

In a further test the target is T6, 4H1338-bA.
T6 chain: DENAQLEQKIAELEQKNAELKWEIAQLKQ
Put plainly: two-hybrid library CCNG1.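 Also: natural log of median RNA to DNA barcode read ratio; higher means stronger binding.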

For the next test, the target named is T7, 4H1348-bA.
T7 chain: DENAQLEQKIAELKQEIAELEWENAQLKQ
Put plainly: two-hybrid library CCNG1.

The next test concerns the target T8, 4H570-bA.
T8 chain: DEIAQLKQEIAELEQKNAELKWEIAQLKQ
In words: two-hybrid library CCNG1.

For another test, the target named is T9, 4H3628-bA.
T9 chain: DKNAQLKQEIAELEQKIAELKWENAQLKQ
In words: two-hybrid library CCNG1.

The target in another test is T10, 4H1985-bA.
T10 chain: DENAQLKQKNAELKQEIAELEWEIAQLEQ
Put plainly: two-hybrid library CCNG1.

Another test has as its target T11, 4H1544-bA.
T11 chain: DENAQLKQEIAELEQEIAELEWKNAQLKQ
In words: two-hybrid library CCNG1.

A further test concerns the target T12, 4H1710-bA.
T12 chain: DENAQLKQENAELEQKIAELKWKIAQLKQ
In words: two-hybrid library CCNG1.

A further test addresses T13, 4H3613-bA.
T13 chain: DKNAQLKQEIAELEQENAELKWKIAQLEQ
Put plainly: two-hybrid library CCNG1.

A further test deals with T14, 4H1449-bA.
T14 chain: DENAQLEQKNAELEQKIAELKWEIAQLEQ
In words: two-hybrid library CCNG1.

A further test has as its target T15, 4H850-bA.
T15 chain: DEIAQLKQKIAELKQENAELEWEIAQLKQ
Put plainly: two-hybrid library CCNG1.

A further test concerns the target T16, O9.
T16 chain: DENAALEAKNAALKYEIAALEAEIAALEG
Put plainly: two-hybrid library CCNG1.

The target in the next test is T17, O12.
T17 chain: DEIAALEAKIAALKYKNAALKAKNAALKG
In words: two-hybrid library CCNG1.

For another test, the target named is T18, O2.
T18 chain: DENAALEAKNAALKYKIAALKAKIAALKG
Put plainly: two-hybrid library CCNG1.

The next test deals with T19, O3.
T19 chain: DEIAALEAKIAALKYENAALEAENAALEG
Put plainly: two-hybrid library CCNG1.

Another test has as its target T20, O15.
T20 chain: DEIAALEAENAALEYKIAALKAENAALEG
In words: two-hybrid library CCNG1.

Another test addresses T21, O8.
T21 chain: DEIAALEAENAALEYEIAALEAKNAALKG
Put plainly: two-hybrid library CCNG1.

Another test concerns the target T22, O10.
T22 chain: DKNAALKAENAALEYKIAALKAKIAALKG
In words: two-hybrid library CCNG1.

Another test addresses T23, O16.
T23 chain: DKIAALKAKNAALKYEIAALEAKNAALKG
Put plainly: two-hybrid library CCNG1.

Another test deals with T24, O4.
T24 chain: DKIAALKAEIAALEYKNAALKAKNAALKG
Put plainly: two-hybrid library CCNG1.

In the next test the target is T25, O14.
T25 chain: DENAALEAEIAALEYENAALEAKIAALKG
In words: two-hybrid library CCNG1.

In the next test the target is T26, O6.
T26 chain: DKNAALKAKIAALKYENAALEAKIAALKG
Put plainly: two-hybrid library CCNG1.

Another test addresses T27, O11.
T27 chain: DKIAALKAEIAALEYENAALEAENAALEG
In words: two-hybrid library CCNG1.

The next test concerns the target T28, O13.
T28 chain: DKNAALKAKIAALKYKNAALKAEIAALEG
Put plainly: two-hybrid library CCNG1.

Another test has as its target T29, O5.
T29 chain: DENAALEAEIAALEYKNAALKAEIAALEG
Put plainly: two-hybrid library CCNG1.

The target of another test is T30, O7.
T30 chain: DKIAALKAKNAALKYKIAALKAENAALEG
Put plainly: two-hybrid library CCNG1.

For another test, the target named is T31, O1.
T31 chain: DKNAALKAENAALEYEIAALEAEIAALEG
Put plainly: two-hybrid library CCNG1.

A further test deals with T32, 4H570-bH.
T32 chain: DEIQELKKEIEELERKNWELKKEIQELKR
In words: two-hybrid library CCNG1.

For the next test, the target named is T33, 4H850-bH.
T33 chain: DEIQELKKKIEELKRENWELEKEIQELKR
Put plainly: two-hybrid library CCNG1.

A further test has as its target T34, 4H3974-bH.
T34 chain: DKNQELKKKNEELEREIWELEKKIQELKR
Put plainly: two-hybrid library CCNG1.

A further test addresses T35, 4H3858-bH.
T35 chain: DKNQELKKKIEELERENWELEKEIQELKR
Put plainly: two-hybrid library CCNG1.

Another test deals with T36, 4H3922-AA.
T36 chain: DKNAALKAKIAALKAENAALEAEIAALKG
In words: two-hybrid library CCmax. Conditions: mean of both orientations.

In another test the target is T37, 4H369-AA.
T37 chain: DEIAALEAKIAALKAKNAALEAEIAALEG
In words: two-hybrid library CCmax. As to conditions: mean of both orientations.

For a further test, the target named is T38, 4H3605-AA.
T38 chain: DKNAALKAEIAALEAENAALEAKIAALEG
In words: two-hybrid library CCmax. Conditions: mean of both orientations.

Another test has as its target T39, 4H3664-AA.
T39 chain: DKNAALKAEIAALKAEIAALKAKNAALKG
In words: two-hybrid library CCmax. Conditions: mean of both orientations.

The target in the next test is T40, 4H629-AA.
T40 chain: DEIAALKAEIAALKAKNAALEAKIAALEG
Put plainly: two-hybrid library CCmax.

A further test concerns the target T41, 4H2513-AA.
T41 chain: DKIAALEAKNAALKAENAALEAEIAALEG
Put plainly: two-hybrid library CCmax. As to conditions: mean of both orientations.

Another test addresses T42, 4H2608-AA.
T42 chain: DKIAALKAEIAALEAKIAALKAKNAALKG
Put plainly: two-hybrid library CCmax. As to conditions: mean of both orientations.

The target of the next test is T43, 4H2614-AA.
T43 chain: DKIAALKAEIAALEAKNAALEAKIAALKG
Put plainly: two-hybrid library CCmax. Conditions: mean of both orientations.

The next test addresses T44, 4H2726-AA.
T44 chain: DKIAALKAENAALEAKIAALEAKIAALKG
Put plainly: two-hybrid library CCmax. Conditions: mean of both orientations.

The target of the next test is T45, 4H327-AA.
T45 chain: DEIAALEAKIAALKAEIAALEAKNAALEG
Put plainly: two-hybrid library CCmax. As to conditions: mean of both orientations.

The next test addresses T46, 4H2211-AA.
T46 chain: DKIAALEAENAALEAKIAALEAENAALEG
Put plainly: two-hybrid library CCmax. As to conditions: mean of both orientations.

Another test addresses T47, 4H4033-AA.
T47 chain: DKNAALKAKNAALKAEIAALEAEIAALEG
In words: two-hybrid library CCmax. As to conditions: mean of both orientations.

The target in the next test is T48, 4H662-AA.
T48 chain: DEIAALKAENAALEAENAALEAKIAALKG
In words: two-hybrid library CCmax. Conditions: mean of both orientations.

A further test deals with T49, 4H55-AA.
T49 chain: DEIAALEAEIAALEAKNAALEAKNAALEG
In words: two-hybrid library CCmax. Conditions: mean of both orientations.

The next test concerns the target T50, 4H1405-AA.
T50 chain: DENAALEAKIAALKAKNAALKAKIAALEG
Put plainly: two-hybrid library CCmax. Conditions: mean of both orientations.

For a further test, the target named is T51, 4H1198-AA.
T51 chain: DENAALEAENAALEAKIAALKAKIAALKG
Put plainly: two-hybrid library CCmax. As to conditions: mean of both orientations.

In another test the target is T52, 4H2935-AA.
T52 chain: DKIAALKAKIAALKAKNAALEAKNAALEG
Put plainly: two-hybrid library CCmax. Conditions: mean of both orientations.

A further test addresses T53, 4H481-AA.
T53 chain: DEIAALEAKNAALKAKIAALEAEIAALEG
In words: two-hybrid library CCmax. As to conditions: mean of both orientations.

For the next test, the target named is T54, 4H2536-AA.
T54 chain: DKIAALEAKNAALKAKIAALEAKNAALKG
In words: two-hybrid library CCmax. As to conditions: mean of both orientations.

Another test deals with T55, 4H3625-AA.
T55 chain: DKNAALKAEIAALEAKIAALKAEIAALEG
In words: two-hybrid library CCmax. Conditions: mean of both orientations.

The target in a further test is T56, 4H1082-AA.
T56 chain: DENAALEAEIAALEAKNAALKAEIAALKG
In words: two-hybrid library CCmax.

A further test has as its target T57, 4H1350-AA.
T57 chain: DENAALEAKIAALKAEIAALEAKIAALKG
Put plainly: two-hybrid library CCmax. Conditions: mean of both orientations.

The target of a further test is T58, 4H2238-AA.
T58 chain: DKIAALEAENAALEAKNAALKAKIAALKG
In words: two-hybrid library CCmax. Conditions: mean of both orientations.

The target in the next test is T59, 4H1103-AA.
T59 chain: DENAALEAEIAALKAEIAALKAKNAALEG
Put plainly: two-hybrid library CCmax. Conditions: mean of both orientations.

As for DENAQLEQKIAELEQKNAELKWEIAQLKQ [4H1338-bA], the interaction score in the test with 4H1373-bA was -0.825; with 4H3974-bA it was 1.12; with 4H3817-bA, -0.561; in the test with 4H3858-bA, 1.87; with 4H1899-bA it was -0.794; with 4H1338-bA, -0.0383. The interaction score is -0.532 in the test with 4H1348-bA; -0.499 in the test with 4H570-bA; -0.607 with 4H3628-bA; 0.203 with 4H1985-bA; -0.0537 with 4H1544-bA; -1.12 in the test with 4H1710-bA. In addition, the interaction score in the test with 4H3613-bA was 0.511; with 4H1449-bA, -0.906; with 4H850-bA it was 1.4.

Consider DKNAALKAENAALEYEIAALEAEIAALEG [O1], for which the interaction score in the test with O9 is -1.83; in the test with O12, -2.35; with O2, 1.45; in the test with O3, -2.08; with O15 it was -2.03; with O8 it was -2.46. Moreover, the interaction score with O10 is -1.12; in the test with O16, -2.54; with O4, -2.08; with O14 it was -2.4; with O6, -2.86; with O11, -2.38. Further, the interaction score was -1.26 in the test with O13, -2.09 in the test with O5, -2.15 in the test with O7 and -2.12 with O1.

For the molecule DKNQELKKKIEELERENWELEKEIQELKR [4H3858-bH], the interaction score in the test with 4H570-bH is 1.32; with 4H850-bH, -0.759; in the test with 4H3974-bH, -0.677; in the test with 4H3858-bH, 1.05; in the test with O1, -0.992.

Turning to DENAALEAEIAALEAKNAALKAEIAALKG [4H1082-AA], the interaction score is 2.18 with 4H3922-AA; -0.173 in the test with 4H369-AA; 1.35 with 4H3605-AA; -1.83 in the test with 4H3664-AA; -0.619 with 4H629-AA; -0.261 with 4H2513-AA. Further, the interaction score with 4H2608-AA is 1.21; with 4H2614-AA, 0.814; with 4H2726-AA, -0.0246; in the test with 4H327-AA, -0.938; with 4H2211-AA, -0.726; with 4H4033-AA, -0.637. Besides, the interaction score was -0.82 with 4H662-AA; -1.89 with 4H55-AA; -1.13 in the test with 4H1405-AA; -0.589 with 4H1198-AA; -1.5 in the test with 4H2935-AA; -1.09 in the test with 4H481-AA. The interaction score with 4H2536-AA was -1.58; in the test with 4H3625-AA, -0.987; in the test with 4H1082-AA, -0.277; with 4H1350-AA, 0.509; in the test with 4H2238-AA it was -1.2; in the test with 4H1103-AA, -1.29.
